For the assay, the target named is T1, NAA10 H16P-V5 (human, UniProt P41227-1 1-235, H16P).
T1 sequence (looked up): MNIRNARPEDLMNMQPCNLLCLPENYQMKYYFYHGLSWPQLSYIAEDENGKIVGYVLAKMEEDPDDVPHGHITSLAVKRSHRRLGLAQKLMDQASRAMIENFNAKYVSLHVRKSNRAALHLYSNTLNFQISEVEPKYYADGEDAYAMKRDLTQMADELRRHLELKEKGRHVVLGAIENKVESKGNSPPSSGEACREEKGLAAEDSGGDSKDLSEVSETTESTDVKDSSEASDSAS
Briefly: cell-based or functional assay.

B1: NAA15 (natural protein, human (endogenous in HeLa), UniProt Q9BXJ9 1-866, looked up)
chain: MPAVSLPPKENALFKRILRCYEHKQYRNGLKFCKQILSNPKFAEHGETLAMKGLTLNCLGKKEEAYELVRRGLRNDLKSHVCWHVYGLLQRSDKKYDEAIKCYRNALKWDKDNLQILRDLSLLQIQMRDLEGYRETRYQLLQLRPAQRASWIGYAIAYHLLEDYEMAAKILEEFRKTQQTSPDKVDYEYSELLLYQNQVLREAGLYREALEHLCTYEKQICDKLAVEETKGELLLQLCRLEDAADVYRGLQERNPENWAYYKGLEKALKPANMLERLKIYEEAWTKYPRGLVPRRLPLNFLSGEKFKECLDKFLRMNFSKGCPPVFNTLRSLYKDKEKVAIIEELVVGYETSLKSCRLFNPNDDGKEEPPTTLLWVQYYLAQHYDKIGQPSIALEYINTAIESTPTLIELFLVKAKIYKHAGNIKEAARWMDEAQALDTADRFINSKCAKYMLKANLIKEAEEMCSKFTREGTSAVENLNEMQCMWFQTECAQAYKAMNKFGEALKKCHEIERHFIEITDDQFDFHTYCMRKITLRSYVDLLKLEDVLRQHPFYFKAARIAIEIYLKLHDNPLTDENKEHEADTANMSDKELKKLRNKQRRAQKKAQIEEEKKNAEKEKQQRNQKKKKDDDDEEIGGPKEELIPEKLAKVETPLEEAIKFLTPLKNLVKNKIETHLFAFEIYFRKEKFLLMLQSVKRAFAIDSSHPWLHECMIRLFNTAVCESKDLSDTVRTVLKQEMNRLFGATNPKNFNETFLKRNSDSLPHRLSAAKMVYYLDPSSQKRAIELATTLDESLTNRNLQTCMEVLEALYDGSLGDCKEAAEIYRANCHKLFPYALAFMPPGYEEDMKITVNGDSSAEAEELANEI
For B1, the “Nt-acetylation assay of the V5 immunoprecipitate towards the monomeric NAA10 substrate EEEI24, normalized to NAA10-V5, relative to NAA10 WT-V5” value came to 1.5 fold.

The values are drawn from PMC7374887, “Severe syndromic ID and skewed X-inactivation in a child with NAA10 dysfunction and a novel heterozygous de novo NAA10 p.(His16Pro) variant - a case report” (BMC Medical Genetics, 2020).
